In the supplement of paper PMC7125110:
± gives the standard error. For part of these data: This sample holds only a part of the variants without activity.

B1: glmS ribozyme (parent)
chain: AUAAAAGCGCCAGAACUACAGAAAUGUAGUUGACGAGGAGGAGGUUUAUCGAAUUUUCGGCGGAUGCCUCCAAA

Experiments:
Settings in all cases: with glucosamine-6-phosphate
glucosamine-6-phosphate [1] = variants of: B1; assay: kcat; higher = faster cleavage; RNA array
Outline: (§1)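 Tracking of barcoded ribozyme variants used a hybridised Cy3 probe at 37 °C, after in situ transcription by E. coli RNA polymerase on sequenced MiSeq chips. The flowed solution held 40 μM to 10 mM glucosamine-6-phosphate in HEPES/KCl/Mg(OAc)2 buffer, and imaging ran over ~14 h. kobs was taken from exponential decay fits of normalised per-tile medians, and kcat and KM from weighted Michaelis–Menten fits.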

glucosamine-6-phosphate [2] = variants of: B1; assay: self-cleavage kobs at 160 uM GlcN6P; higher = faster cleavage; RNA array
Outline: as §1

glucosamine-6-phosphate [3] = variants of: B1; assay: self-cleavage kobs at 640 uM GlcN6P; higher = faster cleavage; RNA array
Outline: as §1

glucosamine-6-phosphate [4] = variants of: B1; assay: self-cleavage kobs at 40 uM GlcN6P; higher = faster cleavage; RNA array
Outline: as §1

glucosamine-6-phosphate [5] = variants of: B1; assay: KM; higher = weaker cofactor use; RNA array
Outline: as §1

glucosamine-6-phosphate [6] = variants of: B1; assay: self-cleavage kobs at 2500 uM GlcN6P; higher = faster cleavage; RNA array
Outline: as §1

glucosamine-6-phosphate [7] = variants of: B1; assay: self-cleavage kobs at 10000 uM GlcN6P; higher = faster cleavage; RNA array
Outline: as §1

| Variant | kcat (glucosamine-6-phosphate [1]) [s⁻¹] | self-cleavage kobs at 160 uM GlcN6P (glucosamine-6-phosphate [2]) [s⁻¹] | self-cleavage kobs at 640 uM GlcN6P (glucosamine-6-phosphate [3]) [s⁻¹] | self-cleavage kobs at 40 uM GlcN6P (glucosamine-6-phosphate [4]) [s⁻¹] | KM (glucosamine-6-phosphate [5]) [µM] | self-cleavage kobs at 2500 uM GlcN6P (glucosamine-6-phosphate [6]) [s⁻¹] | self-cleavage kobs at 10000 uM GlcN6P (glucosamine-6-phosphate [7]) [s⁻¹] |
| --- | --- | --- | --- | --- | --- | --- | --- |
| G32A C61U | < 1e-05 | < 1e-05 | < 1e-05 | – | – | – | – |
| U56G C61U | < 1e-05 | – | – | < 1e-05 | – | – | – |
| C10A G60C | < 1e-05 | – | < 1e-05 | – | – | – | – |
| G43A C67A | 0.00175 ± 0.00022 | 0.000242 ± 6.6e-05 | 0.000611 ± 0.00013 | 7.15e-05 ± 1.3e-05 | 976 ± 200 | 0.00156 ± 0.00025 | 0.00147 ± 0.00026 |
| G13U U31C | 0.000427 ± 1.8e-05 | 4.8e-05 ± 2.1e-05 | 0.00017 ± 2.8e-05 | – | 1040 ± 110 | 0.000297 ± 3.8e-05 | 0.000387 ± 5.1e-05 |
| U65C C68A | < 1e-05 | – | – | < 1e-05 | – | – | – |
| A39G G41A | 0.00311 ± 0.00078 | 8.83e-05 ± 2.3e-05 | 0.000475 ± 9.1e-05 | 4.23e-05 ± 8.3e-06 | 3870 ± 1400 | 0.00153 ± 0.00033 | 0.00217 ± 0.0003 |
| G13U C67A | 0.000419 ± 9e-05 | 3.99e-05 ± 9e-06 | 9.71e-05 ± 9.5e-06 | – | 2040 ± 670 | 0.000225 ± 2.3e-05 | 0.000504 ± 0.00015 |
| A15G C68G | 0.000113 ± 3e-06 | 3.48e-05 ± 1.2e-05 | 7.26e-05 ± 1.2e-05 | – | 367 ± 35 | 9.45e-05 ± 1.6e-05 | 0.000113 ± 1.7e-05 |
| U46C U69A | 0.000242 ± 4.8e-05 | 5.58e-05 ± 2.2e-05 | 9.77e-05 ± 2.8e-05 | – | 686 ± 310 | 0.000199 ± 6.1e-05 | 0.000243 ± 6.5e-05 |
| U31A U46A | 0.00237 ± 0.00062 | 4.27e-05 ± 1.9e-05 | 0.000292 ± 9.4e-05 | 3.33e-05 ± 1.3e-05 | 5680 ± 2600 | 0.000857 ± 0.0002 | 0.00149 ± 0.00018 |
| U55G C58U | 0.00011 ± 7.5e-06 | – | – | – | 7880 ± 1100 | 2.7e-05 ± 8.5e-06 | 6.17e-05 ± 7.4e-06 |
| U46A C61A | 1.2e-05 ± 3e-07 | – | – | – | 1800 ± 100 | – | – |
| C58A C61U | < 1e-05 | – | – | – | – | – | – |
| C67A U69C | 0.00359 ± 0.0017 | – | 0.0019 ± 0.00079 | 0.000527 ± 0.00011 | – | – | 0.00665 ± 0.0025 |
| A39C U65C | 0.000473 ± 8.7e-05 | – | 0.000107 ± 2e-05 | – | 2250 ± 770 | 0.000311 ± 7.1e-05 | 0.000367 ± 6.1e-05 |
| G40A G41C A53G | 0.000315 ± 0.00011 | – | 5.58e-05 ± 1.2e-05 | – | 3110 ± 1500 | 0.000139 ± 3.1e-05 | – |
| U55C G60A | 1.48e-05 ± 1.8e-06 | – | – | < 1e-05 | – | – | – |

| Variant | kcat (glucosamine-6-phosphate [1]) [s⁻¹] | self-cleavage kobs at 160 uM GlcN6P (glucosamine-6-phosphate [2]) [s⁻¹] | self-cleavage kobs at 640 uM GlcN6P (glucosamine-6-phosphate [3]) [s⁻¹] | self-cleavage kobs at 40 uM GlcN6P (glucosamine-6-phosphate [4]) [s⁻¹] | KM (glucosamine-6-phosphate [5]) [µM] | self-cleavage kobs at 2500 uM GlcN6P (glucosamine-6-phosphate [6]) [s⁻¹] | self-cleavage kobs at 10000 uM GlcN6P (glucosamine-6-phosphate [7]) [s⁻¹] |
| --- | --- | --- | --- | --- | --- | --- | --- |
| A12C A48U | 0.000191 ± 4.1e-06 | – | 3.34e-05 ± 9.3e-06 | – | 2890 ± 150 | 9.1e-05 ± 1.6e-05 | 0.000147 ± 1.6e-05 |
| G7A U69C | < 1e-05 | < 1e-05 | – | – | – | – | – |
| G41A U65A | 0.000213 ± 2.1e-05 | – | 7.98e-05 ± 1.2e-05 | – | 1040 ± 220 | 0.000171 ± 3e-05 | 0.000182 ± 3e-05 |
| A33G U49C U57A | 2.2e-05 ± 2.7e-06 | – | – | – | – | – | – |
| G26U C70G | 0.000115 ± 1e-05 | 6.66e-05 ± 1.3e-05 | 9.17e-05 ± 1.7e-05 | – | 142 ± 48 | 0.000117 ± 1.6e-05 | 9.26e-05 ± 2.8e-05 |
| G38U U57A | 1.47e-05 ± 4.2e-06 | – | < 1e-05 | – | – | – | – |
| C34G C68U | 1.7e-05 ± 5.3e-06 | – | – | – | – | – | – |
| G66U C67U | 0.000913 ± 3.1e-05 | 0.00011 ± 1.3e-05 | 0.000333 ± 4.2e-05 | 3.44e-05 ± 7.1e-06 | 1130 ± 66 | 0.000607 ± 8.4e-05 | 0.000831 ± 7.9e-05 |
| U31C A52U U65A | < 1e-05 | – | – | – | – | – | – |
| C11A A15C C70A | 4.15e-05 ± 2.7e-06 | – | – | – | – | – | 4.27e-05 ± 1.9e-05 |
| C16A A39C | 0.000305 ± 1.9e-05 | – | 3.69e-05 ± 1.3e-05 | – | 4340 ± 490 | 0.000114 ± 1.5e-05 | 0.00021 ± 2.9e-05 |
| A6U C68U | 8.73e-05 ± 5.1e-06 | – | 4.75e-05 ± 8.3e-06 | – | 491 ± 140 | 8.07e-05 ± 9e-06 | 8e-05 ± 7.3e-06 |
| G13C U31G | 0.000196 ± 4.5e-06 | – | 5.79e-05 ± 1.2e-05 | – | 1560 ± 90 | 0.000119 ± 1.8e-05 | 0.00017 ± 2.2e-05 |
| G13U G37U | < 1e-05 | – | < 1e-05 | – | – | – | < 1e-05 |
| A15C C16A | 0.00213 ± 0.00077 | 0.000139 ± 3e-05 | 0.000522 ± 8e-05 | 5.77e-05 ± 8.7e-06 | – | 0.000888 ± 0.00013 | 0.00248 ± 0.00031 |
| C16U A36C | < 1e-05 | – | < 1e-05 | < 1e-05 | 28.4 ± 13 | < 1e-05 | – |
| U55C G66A | 0.0117 ± 0.003 | 0.00128 ± 0.0002 | 0.0034 ± 0.00061 | 0.0004 ± 6.8e-05 | 1240 ± 450 | 0.0116 ± 0.0017 | 0.00884 ± 0.0018 |
